In patent publication US20100303808A1 (published 2010):

T1: human CD20 (human, UniProt P11836 1-297)
T1 construct: whole, on cells; also called human B-lymphocyte-restricted differentiation antigen; Bp35
T1 sequence (looked up): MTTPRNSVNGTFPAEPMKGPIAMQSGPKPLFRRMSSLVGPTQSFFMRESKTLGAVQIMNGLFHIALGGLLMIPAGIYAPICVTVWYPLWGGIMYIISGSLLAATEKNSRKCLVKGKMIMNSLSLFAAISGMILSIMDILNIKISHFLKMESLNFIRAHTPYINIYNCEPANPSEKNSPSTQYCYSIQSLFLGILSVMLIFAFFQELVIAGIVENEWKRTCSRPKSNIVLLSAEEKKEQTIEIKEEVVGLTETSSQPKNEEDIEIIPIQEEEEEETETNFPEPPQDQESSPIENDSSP

B1: chimeric antibody c1F5 (c1F5VH x c1F5VK) (antibody, human IgG1, kappa, V domains shown)
VH: QVQLRQPGAELVKPGASVKMSCKASGYTFTSYNMHWVKQTPGQGLEWIGAIYPGNGDTSYNQKFKGKATLTADKSSSTAYMQLSSLTSEDSAVYYCARSHYGSNYVDYFDYWGQGTLVTVST
VL: QIVLSQSPAILSASPGEKVTMTCRASSSLSFMHWYQQKPGSSPKPWIYATSNLASGVPARFSGSGSGTSYSLTISRVEAEDAATYFCHQWSSNPLTFGAGTKVEIKR
notes: Mouse 1F5 variable regions on human gamma1 / kappa constant regions; also called chimeric 1F5
B2: chimeric c1F5VH x 1F5RKB12 (antibody, human IgG1, kappa, V domains shown)
VH: QVQLRQPGAELVKPGASVKMSCKASGYTFTSYNMHWVKQTPGQGLEWIGAIYPGNGDTSYNQKFKGKATLTADKSSSTAYMQLSSLTSEDSAVYYCARSHYGSNYVDYFDYWGQGTLVTVST
VL: EIVLTQSPGTLSLSPGERATLSCRASSSLSFMHWYQQKPGQAPRPWIYATSNLASGIPARFSGSGSGTDYTLTISRLEPEDFAVYFCHQWSSNPLTFGQGTKVELKR
notes: IgG1 kappa from HEK293T conditioned medium
B3: rituximab (antibody, V domains shown)
VH: QVQLQQPGAELVKPGASVKMSCKASGYTFTSYNMHWVKQTPGRGLEWIGAIYPGNGDTSYNQKFKGKATLTADKSSSTAYMQLSSLTSEDSAVYYCARSTYYGGDWYFNVWGAGTTVTVSA
VL: QIVLSQSPAILSASPGEKVTMTCRASSSVSYIHWFQQKPGSSPKPWIYATSNLASGVPVRFSGSGSGTSYSLTISRVEAEDAATYYCQQWTSNPPTFGGGTKLEIK
B4: 1F5RHA x 1F5RKB11 (antibody, human IgG1, kappa, V domains shown)
VH: QVQLVQSGAEVKKPGASVKVSCKASGYTFTSYNMHWVRQAPGQRLEWIGAIYPGNGDTSYNQKFKGRVTVTRDTSANTAYMELSSLKSEDTAVYYCARSHYGSNYVDYFDYWGQGTLVTVSS
VL: EIVLTQSPSSLSASVGDRVTITCRASSSLSFMHWYQQKPGKAPKPWIYATSNLASGVPSRFSGSGSGTDYTLTISSLQPEDFATYFCHQWSSNPLTFGGGTKVEIKR
notes: also called RHA x RKB11; Variant D
B5: 1F5RHA x 1F5RKB12 (antibody, human IgG1, kappa, V domains shown)
VH: QVQLVQSGAEVKKPGASVKVSCKASGYTFTSYNMHWVRQAPGQRLEWIGAIYPGNGDTSYNQKFKGRVTVTRDTSANTAYMELSSLKSEDTAVYYCARSHYGSNYVDYFDYWGQGTLVTVSS
VL: EIVLTQSPGTLSLSPGERATLSCRASSSLSFMHWYQQKPGQAPRPWIYATSNLASGIPARFSGSGSGTDYTLTISRLEPEDFAVYFCHQWSSNPLTFGQGTKVELKR
notes: also called RHA x RKB12; Variant F
B6: 1F5RHA x chimeric c1F5VK (antibody, human IgG1, kappa, V domains shown)
VH: QVQLVQSGAEVKKPGASVKVSCKASGYTFTSYNMHWVRQAPGQRLEWIGAIYPGNGDTSYNQKFKGRVTVTRDTSANTAYMELSSLKSEDTAVYYCARSHYGSNYVDYFDYWGQGTLVTVSS
VL: QIVLSQSPAILSASPGEKVTMTCRASSSLSFMHWYQQKPGSSPKPWIYATSNLASGVPARFSGSGSGTSYSLTISRVEAEDAATYFCHQWSSNPLTFGAGTKVEIKR
notes: IgG1 kappa from HEK293T conditioned medium; also called chimeric VK x 1F5RHA
B7: 1F5RHB x chimeric c1F5VK (antibody, human IgG1, kappa, V domains shown)
VH: QVQLVQSGAEVKKPGASVKVSCKASGYTFTSYNMHWVRQAPGQRLEWIGAIYPGNGDTSYNQKFKGRATLTADKSANTAYMELSSLKSEDTAVYYCARSHYGSNYVDYFDYWGQGTLVTVSS
VL: QIVLSQSPAILSASPGEKVTMTCRASSSLSFMHWYQQKPGSSPKPWIYATSNLASGVPARFSGSGSGTSYSLTISRVEAEDAATYFCHQWSSNPLTFGAGTKVEIKR
notes: 1F5RHB is 1F5RHA with four back mutations
B8: 1F5RHA x 1F5RKF12 (antibody, human IgG1, kappa, V domains shown)
VH: QVQLVQSGAEVKKPGASVKVSCKASGYTFTSYNMHWVRQAPGQRLEWIGAIYPGNGDTSYNQKFKGRVTVTRDTSANTAYMELSSLKSEDTAVYYCARSHYGSNYVDYFDYWGQGTLVTVSS
VL: EIVLTQSPGTLSLSPGERATLSCRASSSLSFMHWYQQKPGQAPRPLIYATSNLASGIPARFSGSGSGTDFTLTISRLEPEDFAVYFCHQWSSNPLTFGQGTKVELKR
notes: also called RHA x RKF12; 1F5RKF12 x 1F5RHA
B9: 1F5RHA x 1F5RKG11 (antibody, human IgG1, kappa, V domains shown)
VH: QVQLVQSGAEVKKPGASVKVSCKASGYTFTSYNMHWVRQAPGQRLEWIGAIYPGNGDTSYNQKFKGRVTVTRDTSANTAYMELSSLKSEDTAVYYCARSHYGSNYVDYFDYWGQGTLVTVSS
VL: EIVLTQSPSSLSASVGDRVTITCRASSSLSFMHWYQQKPGKAPKPLIYATSNLASGVPSRFSGSGSGTDFTLTISSLQPEDFATYYCHQWSSNPLTFGGGTKVEIKR
notes: also called RHA x RKG11; 1F5RKG11 x 1F5RHA
B10: chimeric c1F5VH x 1F5RKB11 (antibody, human IgG1, kappa, V domains shown)
VH: QVQLRQPGAELVKPGASVKMSCKASGYTFTSYNMHWVKQTPGQGLEWIGAIYPGNGDTSYNQKFKGKATLTADKSSSTAYMQLSSLTSEDSAVYYCARSHYGSNYVDYFDYWGQGTLVTVST
VL: EIVLTQSPSSLSASVGDRVTITCRASSSLSFMHWYQQKPGKAPKPWIYATSNLASGVPSRFSGSGSGTDYTLTISSLQPEDFATYFCHQWSSNPLTFGGGTKVEIKR
notes: IgG1 kappa from HEK293T conditioned medium; also called chimeric VH x 1F5RKB11

Tests used:
human CD20 [1] = target: T1, human CD20; experiment: dissociation of DyLight 488-labelled antibody from Raji cells at 37 C in excess unlabelled antibody, FACS MFI; Study 2; design: unit not given here
Procedure: (§1) All antibodies were conjugated to a fluorescein-like fluorophore, DyLight 488, according to vendor instructions (Pierce Cat. No. 53025). Following conjugation, labeled antibody was separated from free dye using chromatography columns provided in the labeling kit. […] Purified labeled antibodies were stored at 4° C. in PBS protected from light.
(§2) To measure antibody dissociation from cells, 10⁶ Raji cells were suspended in PBS containing 1% bovine serum albumin (PBS/BSA). Labeled antibody was added to a final concentration of 5 ug/ml in a volume of 1.0 ml. Following a 30 minute incubation at 37° C., unlabeled (“cold”) antibody was added to a final concentration of 1000 ug/ml. Labeled cells mixed with cold antibody were returned to 37° C. for 4 hours. At 20-minute intervals, 100 ul aliquots of cells were withdrawn from each sample, 400 uL cold PBS/BSA containing propidium iodide was added and mean fluorescence intensity (MFI) of the cell population excluding dead cells (PI⁺) determined by FACS.

human CD20 [2] = target: T1, human CD20; experiment: cell-based or functional assay
human CD20 [3] = target: T1, human CD20; experiment: dissociation of DyLight 488-labelled antibody from Raji cells at 37 C in excess unlabelled antibody, FACS MFI; average of Studies 1 and 2; design: unit not given here
Procedure: as §1, §2

human CD20 [4] = target: T1, human CD20; experiment: dissociation of DyLight 488-labelled antibody from Raji cells at 37 C in excess unlabelled antibody, FACS MFI; Study 1; design: unit not given here
Procedure: as §1, §2

human CD20 [5] = target: T1, human CD20; experiment: ELISA on fixed Raji cells (CD20+), anti-human kappa detection
Procedure: Raji cells (80 μl; 1-2×10⁶ cells/ml in 24 ml with fresh growth medium diluted with 0.11 vol of 10×PBS (MPBS) and 8 ml 8% paraformaldehyde (in PBS)) were added to 96-well poly-D-lysine-coated plate and centrifuged at 2500 rpm (Beckman 6L) at 25° C. for 60 minutes. The pellets were washed 4 times with 400 μl PBS, Tween 20 (0.02% v/v). 50 μl of MPBS was added to each well after the final wash, and incubated for 1 hour at room temperature, and the blocking buffer was then discarded. Serial dilutions of the 1F5 antibodies were prepared in MPBS in a separate 96-well plate, transferred to the Raji-cell coated plate and incubated at room temperature for 1 hour. The antibody solution was then discarded and the plates were washed 6 times with 400 μl PBS buffer. Goat anti-human kappa (Sigma A7164) was prepared by diluting the stock antibody solution 1:2000 in MPBS, added to the washed wells, and incubated again at room temperature for 1 hour. The plates were again washed 6 times in 400 μl PBS buffer. 100 μl of K-blue TMB solution was added to each well. The reactions were stopped by added 50 μl red stop after 30 minutes, and the absorbance was read at 650 nm.

human CD20 [6] = target: T1, human CD20; experiment: cell-based or functional assay; remark: listed apart in the source

| Binder | Half-life (dissociation from Raji cells) (human CD20 [1]) | LogEC50, complement dependent cytotoxicity (CDC) on Raji cells (human CD20 [2]) | Half-life (dissociation from Raji cells), average (human CD20 [3]) | Half-life (dissociation from Raji cells) (human CD20 [4]) | binding result (human CD20 [5]) | complement dependent cytotoxicity (CDC) on Raji cells, relative to rituximab (human CD20 [6]) |
| --- | --- | --- | --- | --- | --- | --- |
| B1 | 57 | -0.781 | 58 | 59 | – | – |
| B2 | – | – | – | – | binds | – |
| B3 | 24 | -1.73 | 24 | 24 | – | – |
| B4 | 59 | -1.06 | 52 | 44 | – | – |
| B5 | 64 | -1.13 | 68 | 72 | – | – |
| B6 | – | – | – | – | binds | – |
| B7 | – | – | – | – | binds | – |
| B8 | 65 | -1.15 | 66 | 67 | – | – |
| B9 | 63 | -0.773 | 65 | 67 | – | ~10 times less than rituximab |
| B10 | – | – | – | – | binds | – |
